Series [1] concerns human whole blood. Briefly: Unwanted effects (complement activation, oxidative burst) in nonstimulated human whole blood. As to conditions: 10 mg/ml Ab; for monocyte oxidative burst: flow cytometry; for complement activation: not shown. In kind it is cell-based. Here is the method:
(§1) The whole blood model has been described in detail previously (36). Fresh human venous or porcine arterial blood was drawn directly into tubes containing the anticoagulant lepirudin (Pharmion) at a final concentration of 50 mg/ml. In 1.8-ml Cryo Tube vials (Nunc, Roskilde, Denmark), the blood was preincubated with up to 20 mg/ml anti-human CD14 (r18D11 or 18D11), or 50 mg/ml anti-porcine CD14 (rMil2 or Mil2) at 37° C. for 10 min prior to an additional 2-h incubation in the presence of 100 ng/ml ultrapure LPS from Escherichia coli 0111:B4 (InvivoGen, San Diego, Calif.) for human blood or 1 3 105/ml heat-inactivated E. coli (strain LE392, ATCC33572) for porcine blood. As negative controls, PBS with MgCl2 and CaCl2 (Sigma-Aldrich) and isotype controls were used. Adverse effects were tested using nonactivated whole blood samples. After the addition of 10 mM (human) or 20 mM (porcine) EDTA, plasma was gained by 15 min centrifugation at 3220 3 g and 4° C. Levels of TNF, IL-6, and IL-1b in human plasma were determined using Bioplex technology (Bio-Rad Laboratories AB). Levels of TNF, IL-1b, and IL-8 in porcine plasma were determined using ELISA (Quantikine, R&D Systems, Minneapolis, Minn.). Platelet count was quantified by impedance using a CELL-DYN Sapphire hematology analyzer (Abbott Laboratories, Abbott Park, Ill.).

The target of series [2] is T1, human CD14 (Homo sapiens, UniProt P08571).
T1 construct: endogenous in cells; host or cells: monocytes in fresh human whole blood (lepirudin)
T1 sequence (P08571 20-345): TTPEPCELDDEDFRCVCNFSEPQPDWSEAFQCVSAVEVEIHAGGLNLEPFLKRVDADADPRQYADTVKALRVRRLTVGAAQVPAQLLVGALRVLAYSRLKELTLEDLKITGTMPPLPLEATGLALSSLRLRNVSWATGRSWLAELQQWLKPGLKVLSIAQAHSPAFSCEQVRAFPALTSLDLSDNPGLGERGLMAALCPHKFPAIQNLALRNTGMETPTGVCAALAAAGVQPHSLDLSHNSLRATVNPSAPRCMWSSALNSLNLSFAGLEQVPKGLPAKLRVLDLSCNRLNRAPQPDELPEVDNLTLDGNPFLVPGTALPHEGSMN
Briefly: CD14 binding in flow cytometry, human whole blood (displacement of 18D11 from monocytes). Here is the method: Fresh human or porcine whole blood was drawn into tubes containing the anticoagulants lepirudin (Refludan; Pharmion, Copenhagen, Denmark) or EDTA, respectively. Blood samples were preincubated for 10 min with Ab, #20 mg/ml anti-human CD14 Abs r18D11, 18D11 F(ab)92 (batch 2068, lot 1383), or isotype controls raNIP and mIgG1 F(ab)92 (lot 1501), or […] anti-porcine CD14 Abs rMil2, Mil2 (lot 1106), or the isotype controls 4770 RECOMBINANT ANTI-CD14 Abs Downloaded from University of Oslo, Library of Medicine and Health Science on Jan. 24, 2014 for IgG2/4 and mIgG2b, eculizumab (Soliris) and mIgG2b (lot 1631), respectively. […] Their binding was detected either by using a secondary PEconjugated anti-mouse IgG or through direct FITC fluorescence. […] In subsequent flow cytometry analyses, human monocyte and porcine granulocyte populations were selected based on the forward scatter-side scatter dot plot, and CD14 binding was recorded as mean or median fluorescence intensity, respectively. […] Fluorescence intensities in the presence of the fluorescently labeled Abs only were set to 100%. Flow cytometry analyses on human samples were performed using an LSRII and FACSDiva software version 5.0.3; porcine samples were analyzed on a FACSCalibur using Cell Quest Pro version 5.2.1 for data acquisition (all from BD Biosciences).

In series [3] the test system is human whole blood. Put plainly: Whole blood ex vivo model of inflammation, LPS-induced cytokine release in human blood. The format is cell-based. Also noted: Ab concentration at which maximum inhibitory effects were reached: unit not given here. The settings on record: for E. coli ultrapure LPS-induced release of IL-1b, TNF and IL-6: 100 ng/ml LPS, dose-dependent; for Ab concentration at which maximum inhibitory effects were reached: LPS-induced IL-1b, TNF, IL-6 release. On the procedure: as §1

The test system of series [4] is complement activation. The settings on record: pigs; cited from earlier work.
Series [5] concerns porcine whole blood. Briefly: rMil2 combined with C5 inhibitor OmCI: cytokine production in porcine whole blood ex vivo. The format is cell-based. The settings on record: E. coli-incubated porcine whole blood. Here is the method:
as §1
Whole blood was incubated with 1 3 106 E. coli per milliliter for 2 h at 37° C. in the absence or presence of inhibitors and controls. TNF, IL-1b, and IL-8 blood was analyzed as described above.

B1: r18D11: recombinant anti-human CD14 mouse/human chimeric IgG2/4 Ab; VL SEQ ID NO:1, VH SEQ ID NO:2 (antibody, V domains shown)
VH: MGWSCIILFLVATATGVHSEVQLVESGGGLMQPKGSLKLSCAASGFTFKTYALNWVRQAPGTGLEWVARIRSKSNNYTTYYADSVKDRFTISRDDSQNMLYLQMNNLKTEDTAMYYCVRPQSGTSFAYWGQGTLVTVSAA
VL: MGWSCIILFLVATATGVHSNIVLTQSPASLAVSLGQRATISCRASESVDSYGNSFMHWYQQKPGQPPKLLIYLASNLESGVPARFSGSGSRTDFTLTIDPVEADDVATYYCQQNNGDPYTFGGGTKLEIIR
modifications: human IgG2/4 constant regions
As to B1, in series [1], the monocyte oxidative burst entry is “did not induce significant oxidative burst” and the complement activation entry is given as “same low level of complement activation”. Besides, the “18D11 displaced from its binding sites on human monocytes” value in series [2] (10 mg/ml r18D11 vs 10 mg/ml 18D11 (equimolar)) is 50%. The “binding to CD14 on human monocytes (competition with 18D11)” value in series [2] (human whole blood) is listed as “dose-dependently outcompeted”. Also, in series [3], the “E. coli ultrapure LPS-induced release of IL-1b, TNF and IL-6” value is given as “inhibited”; the “Ab concentration at which maximum inhibitory effects were reached” value turned out to be 10.

B2: OmCI: endotoxin-free recombinant bacterial OmCI (coversin), a 16.8-kDa protein, complement C5 inhibitor (protein, UniProt Q5YD59 19-168, looked up)
Complement inhibitor: DSESDCTGSEPVDAFQAFSEGKEAYVLVRSTDPKARDCLKGEPAGEKQDNTLPVMMTFKNGTDWASTDWTFTLDGAKVTATLGNLTQNREVVYDSQSHHCHVDKVEKEVPDYEMWMLDAGGLEVEVECCRQKLEELASGRNQMYPHLKDC
For the molecule B2, the “inhibition of complement activation” value in series [4] is given as “inhibit complement activation effectively”. Moreover, in series [5], the “IL-1b release (effect in words)” value was “not significantly reduced”, the “IL-8 release (effect in words)” value is “significantly reduced to almost baseline” and the “TNF release (effect in words)” value is on record as “significantly reduced”.

B3: F(ab)92 fragment of 18D11: F(ab)92 fragment of the murine anti-human CD14 clone 18D11 (Diatec) (antibody, V domains shown)
VH: EVQLVESGGGLMQPKGSLKLSCAASGFTFKTYALNWVRQAPGTGLEWVARIRSKSNNYTTYYADSVKDRFTISRDDSQNMLYLQMNNLKTEDTAMYYCVRPQSGTSFAYWGQGTLVTVSAA
VL: NIVLTQSPASLAVSLGQRATISCRASESVDSYGNSFMHWYQQKPGQPPKLLIYLASNLESGVPARFSGSGSRTDFTLTIDPVEADDVATYYCQQNNGDPYTFGGGTKLEIIR
Take B3: in series [1], the complement activation entry is reported as “did not”.

B4: 18D11: mouse anti-human CD14 IgG1 clone 18D11 (Diatec), original murine clone (antibody, V domains shown)
VH: EVQLVESGGGLMQPKGSLKLSCAASGFTFKTYALNWVRQAPGTGLEWVARIRSKSNNYTTYYADSVKDRFTISRDDSQNMLYLQMNNLKTEDTAMYYCVRPQSGTSFAYWGQGTLVTVSAA
VL: NIVLTQSPASLAVSLGQRATISCRASESVDSYGNSFMHWYQQKPGQPPKLLIYLASNLESGVPARFSGSGSRTDFTLTIDPVEADDVATYYCQQNNGDPYTFGGGTKLEIIR
With B4, in series [1], the monocyte oxidative burst entry is reported as “significantly induced” and the complement activation entry is listed as “same low level of complement activation”. Besides, in series [3], the “E. coli ultrapure LPS-induced release of IL-1b, TNF and IL-6” value is “inhibited”; the “Ab concentration at which maximum inhibitory effects were reached” value is 10.
